Results on five molecules are retold here after patent EP4674868A1 (Jiangsu Hengrui Pharmaceuticals Co., Ltd., dated 2026).

Where two headings read alike, the source gives them in different places.

As usually defined, the Kd is a measure of binding affinity in units of concentration. As a reminder, the koff is the first-order rate constant of dissociation. The term kon denotes the second-order rate constant of association. Broadly, the EC50 is the concentration at which the effect is half-maximal.

Assay [1] addresses T1, h-FAP-His (recombinant human fibroblast activation protein, Leu26-Asp760, His-tagged) (human, UniProt Q12884 26-760).
T1 construct: range 26-760; Bought protein with a His tag; also called human FAP-His protein; His-tagged FAP recombinant protein
Nature of the assay: SPR, antibody captured by anti-human IgG (Fc) on CM5 chip, h-FAP-His as analyte. Background: In SPR one partner is held on a chip, and binding of the other changes the refractive index at the surface.

In assay [2] the target is T1, h-FAP-His (recombinant human fibroblast …). Nature of the assay: ELISA, plate coated with human FAP-His.
For assay [3], the target named is T2, human FAP on the surface of CHO-K1 cells (CHO-K1-HuFAP) (human, UniProt Q12884 1-760).
T2 construct: whole, on cells; also called CHO cell line overexpressing human FAP; FAP on the surface of CHO-K1-HuFAP cells
Nature of the assay: FACS, CHO cell line overexpressing human FAP. On the technique in general: A flow cytometer gives signals particle by particle.

Assay [4] has as its target T3, human CD40 on the surface of HEK293 cells (HEK293-HuCD40) (human, UniProt P25942 21-277). Nature of the assay: cell-based or functional assay.
Assay [5] has as its target T3, human CD40 on the surface of HEK293 …. Nature of the assay: FACS, HEK293 cells transiently expressing human CD40.
Assay [6] concerns the target T4, human 4-1BB on the surface of HEK293 cells (HEK293-Hu4-1BB) (human, UniProt Q07011 24-255).
T4 construct: whole, on cells; also called CD137; cell strain highly expressing human 4-1BB
Nature of the assay: FACS, HEK293-Hu4-1BB cells.

In assay [7] the target is T4, human 4-1BB on the surface of HEK293 …. Briefly: cell-based or functional assay.
The target of assay [8] is T3, human CD40 on the surface of HEK293 …. Nature of the assay: FACS, HEK293-HuCD40 cells.
Assay [9] shares this target. Briefly: FACS, HEK293-HuCD40 cells. This is another data set of the same source.
Assay [10] addresses T2, human FAP on the surface of CHO-K1 …. Briefly: FACS, CHO-K1-HuFAP cells.
For assay [11], the target named is T4, human 4-1BB on the surface of HEK293 …. Briefly: FACS, HEK293-Hu4-1BB cells. This is another data set of the same source.
Assay [12] shares this target. Nature of the assay: FACS, HEK293-Hu4-1BB cells. This is another data set of the same source.
For assay [13] the target is unchanged. Briefly: cell-based or functional assay. This is another data set of the same source.
Assay [14] concerns the target T2, human FAP on the surface of CHO-K1 …. Briefly: FACS, CHO-K1-HuFAP cells. This is another data set of the same source.
The target of assay [15] is T3, human CD40 on the surface of HEK293 …. Briefly: cell-based or functional assay. The source holds these as a separate data set.
In assay [16] the target is T2, human FAP on the surface of CHO-K1 …. Briefly: FACS, CHO-K1-HuFAP cells. This is another data set of the same source.
The target in assay [17] is T4, human 4-1BB on the surface of HEK293 …. Nature of the assay: cell-based or functional assay. This is another data set of the same source.
Assay [18] deals with T3, human CD40 on the surface of HEK293 …. Nature of the assay: FACS, HEK293-HuCD40 cells. This is another data set of the same source.
For assay [19] the target is unchanged. Briefly: cell-based or functional assay. The source holds these as a separate data set.
The target in assay [20] is T4, human 4-1BB on the surface of HEK293 …. Nature of the assay: FACS, HEK293-Hu4-1BB cells. This is another data set of the same source.
Assay [21] has the same target. Briefly: FACS, HEK293-Hu4-1BB cells. This is another data set of the same source.
Assay [22] has the same target. Nature of the assay: cell-based or functional assay. The source holds these as a separate data set.
Assay [23] has the same target. Briefly: cell-based or functional assay. This is another data set of the same source.
The target is the same in assay [24]. Briefly: FACS, HEK293-Hu4-1BB cells. The source holds these as a separate data set.

B1: anti-human FAP monoclonal antibody Ab10 (antibody, human IgG1, kappa, L234A L235A, V domains shown)
VH: QVQLQQSGVEVKKPGASVTVSCRASGYSFADHFIHWVRQAPGQGFQWMGWINPNRGVTHHAQDFQGRVAMTRDMSTDTVYMELTSLRSDDTAVYYCARDASLTARPYYFYGFDVWGQGTLVTVSS
VL: DIQMTQSPSSVSASVGDRVTITCRASQGISSWLAWYQQKPGKAPKLLIYAASSLQSGVPSRFSGSGSGTDFTLTISSLQPEDFATYYCQQANSFPPAFGQGTKVEIKR
notes: Full-length heavy and light chains with human constant regions; also called anti-FAP antibody Ab10
Regarding B1, in assay [1], the dissociation constant (Kd) is 245 pM, the “Ratio of KD of 28H1 to KD of test antibody” value is 5.3, the “Ratio of Kd of 28H1 to Kd of test antibody” value stood at 3.5 and the off-rate (koff) was found to be 7.28e-05 s⁻¹. The kon in assay [1] worked out at 297000 M⁻¹ s⁻¹. Besides, the concentration giving a half-maximal response (EC50) in assay [2] came out at 92 µg/mL. For the same molecule, the EC50 in assay [3] was found to be 0.000432 µg/mL.

B2: anti-CD40 nanobody A297 linked to human IgG1-Fc (C220A, S267E, L328F) (Fc fusion)
chain: QVQLVESGGGMVEPGGSLRLSCAASGFTFSRYGMKWVRQAPGKGPEWVSTINSHGDTTYYADSVKGRFTISRDNAQNTVYLQMNSLKPEDTALYYCLRIDYSDYSSRGQGTQVTVSSEPKSADKTHTCPPCPAPELLGGPSVFLFPPKPKDTLMISRTPEVTCVVVDVEHEDPEVKFNWYVDGVEVHNAKTKPREEQYNSTYRVVSVLTVLHQDWLNGKEYKCKVSSKAFPAPIEKTISKAKGQPREPQVYTLPPSRDELTKNQVSLTCLVKGFYPSDIAVEWESNGQPENNYKTTPPVLDSDGSFFLYSKLTVDKSRWQQGNVFSCSVMHEALHNHYTQKSLSLSPGK
notes: VHH-Fc; no linker between VHH and Fc is stated
Consider B2, for which the “FcγRIIb-mediated activation of HEK-Blue CD40L cells, EC50” value in [4] amounted to 243 pM. Further, the concentration giving a half-maximal response (EC50) in [5] worked out at 1120 pM.

B3: humanized anti-CD40 nanobody A297V3 linked to human IgG1-Fc (C220A, S267E, L328F) (Fc fusion)
chain: EVQLVESGGGLVQPGGSLRLSCAASGFTFSRYGMKWVRQAPGKGLEWVSTINSHGDTTYYADSVKGRFTISRDNAKNSLYLQMNSLRAEDTAVYYCLRIDYSDYSSRGQGTLVTVSSEPKSADKTHTCPPCPAPELLGGPSVFLFPPKPKDTLMISRTPEVTCVVVDVEHEDPEVKFNWYVDGVEVHNAKTKPREEQYNSTYRVVSVLTVLHQDWLNGKEYKCKVSSKAFPAPIEKTISKAKGQPREPQVYTLPPSRDELTKNQVSLTCLVKGFYPSDIAVEWESNGQPENNYKTTPPVLDSDGSFFLYSKLTVDKSRWQQGNVFSCSVMHEALHNHYTQKSLSLSPGK
notes: VHH-Fc
B3: the “FcγRIIb-mediated activation of HEK-Blue CD40L cells, EC50” value in assay [4] amounted to 6 pM. In assay [5], this molecule yielded a concentration for a half-maximal effect (EC50) of 1250 pM.

B4: RO7122290 (FAP/4-1BBL bispecific antibody molecule, control) (bispecific antibody, human IgG1, kappa, L234A L235A)
heavy 1: not shown
heavy 2: EVQLLESGGGLVQPGGSLRLSCAASGFTFSSYAMSWVRQAPGKGLEWVSAIIGSGASTYYADSVKGRFTISRDNSKNTLYLQMNSLRAEDTAVYYCAKGWFGGFNYWGQGTLVTVSSASTKGPSVFPLAPSSKSTSGGTAALGCLVKDYFPEPVTVSWNSGALTSGVHTFPAVLQSSGLYSLSSVVTVPSSSLGTQTYICNVNHKPSNTKVDKKVEPKSCDKTHTCPPCPAPEAAGGPSVFLFPPKPKDTLMISRTPEVTCVVVDVSHEDPEVKFNWYVDGVEVHNAKTKPREEQYNSTYRVVSVLTVLHQDWLNGKEYKCKVSNKALGAPIEKTISKAKGQPREPQVCTLPPSRDELTKNQVSLSCAVKGFYPSDIAVEWESNGQPENNYKTTPPVLDSDGSFFLVSKLTVDKSRWQQGNVFSCSVMHEALHNHYTQKSLSLSPGK
light 1: not shown
light 2: EIVLTQSPGTLSLSPGERATLSCRASQSVTSSYLAWYQQKPGQAPRLLINVGSRRATGIPDRFSGSGSGTDFTLTISRLEPEDFAVYYCQQGIMLPPTFGQGTKVEIKRTVAAPSVFIFPPSDEQLKSGTASVVCLLNNFYPREAKVQWKVDNALQSGNSQESVTEQDSKDSTYSLSSTLTLSKADYEKHKVYACEVTHQGLSSPVTKSFNRGEC
For B4, the Maximum fluorescence value in assay [6] was 10800; in assay [8], 89; in assay [9], 106; in assay [10] it was 112000; in [11] it was 8440; in assay [12], 8200. Further, the Maximum fluorescence value in [14] amounted to 48400; in assay [16], 44200; in assay [18], 2330. Further, the “4-1BB/NF-κB luciferase reporter, CD40-crosslinked, Fold change in Emax” value is 1.77 fold in [7], 2.3 fold in [13] and 1.22 fold in [17]. The “4-1BB/NF-κB luciferase reporter, FAP-crosslinked, EC50” value in assay [7] turned out to be 40 pM; in assay [13], 40 pM; in assay [17], 32 pM. The “4-1BB/NF-κB luciferase reporter, FAP-crosslinked, Fold change in Emax” value in assay [7] was 15.4 fold; in assay [13] it was 9.95 fold; in [17] it was 9.38 fold. Besides, the “4-1BB/NF-κB luciferase reporter, uncrosslinked, Fold change in Emax” value in assay [7] stood at 6.03 fold; in assay [13], 5.97 fold; in [17], 3.6 fold. Besides, the half-maximal effective concentration (EC50) in assay [10] is 1920 pM; in assay [11] it was 573 pM; in [12] it was 670 pM; in assay [14], 1330 pM; in assay [16], 2480 pM. The “CD40/NF-κB reporter (HEK-Blue CD40L), 4-1BB-crosslinked, Fold change in Emax” value in assay [15] and in assay [19] was 1 fold in each case. Moreover, the “CD40/NF-κB reporter (HEK-Blue CD40L), FAP-crosslinked, Fold change in Emax” value in assay [15] and in [19] was 1 fold each time. The “CD40/NF-κB reporter (HEK-Blue CD40L), uncrosslinked, Fold change in Emax” value in [15] came to 0.98 fold; in assay [19], 0.99 fold.

B5: Urelumab (positive control anti-4-1BB antibody) (antibody, V domains shown)
VH: QVQLQQWGAGLLKPSETLSLTCAVYGGSFSGYYWSWIRQSPEKGLEWIGEINHGGYVTYNPSLESRVTISVDTSKNQFSLKLSSVTAADTAVYYCARDYGPGNYDWYFDLWGRGTLVTVSS
VL: EIVLTQSPATLSLSPGERATLSCRASQSVSSYLAWYQQKPGQAPRLLIYDASNRATGIPARFSGSGSGTDFTLTISSLEPEDFAVYYCQQRSNWPPALTFGGGTKVEIK
As to B5, in assay [20], the concentration for a half-maximal effect (EC50) was found to be 1640 pM and the Maximum fluorescence value turned out to be 39700. Moreover, in assay [21], the midpoint of the response, the EC50, lay at 1180 pM and the Maximum fluorescence value is 1000. In assay [22], the “4-1BB/NF-κB luciferase reporter, FcγRIIb crosslinking, EC50” value turned out to be 27 pM and the “4-1BB/NF-κB luciferase reporter, no FcγRIIb crosslinking, EC50” value is 2180 pM. Also, in [23], the “Activation of HEK293-4-1BB cells (NF-κB reporter), Fold change in Emax” value is 1.7 fold and the “FcγRIIb-mediated activation of HEK293-4-1BB cells (NF-κB reporter), Fold change in Emax” value amounted to 2.61 fold. The half-maximal effective concentration (EC50) in assay [24] came to 1640 pM.
